Measured values as given in patent publication US20240327506A1, “METHODS AND COMPOSITION FOR THE SELECTIVE ENHANCEMENT OF ADOPTIVE CELL THERAPY” (MaineHealth, priority 2023, published 2024).

Target: T1, β3 integrin (Mus musculus, UniProt O54890+P43406)
T1 construct: we isolated primary CD8+ T-cells from melanoma bearing mice; endogenous in cells; host or cells: primary CD8+ T-cells isolated from melanoma bearing mice
T1 sequence (O54890 26-787): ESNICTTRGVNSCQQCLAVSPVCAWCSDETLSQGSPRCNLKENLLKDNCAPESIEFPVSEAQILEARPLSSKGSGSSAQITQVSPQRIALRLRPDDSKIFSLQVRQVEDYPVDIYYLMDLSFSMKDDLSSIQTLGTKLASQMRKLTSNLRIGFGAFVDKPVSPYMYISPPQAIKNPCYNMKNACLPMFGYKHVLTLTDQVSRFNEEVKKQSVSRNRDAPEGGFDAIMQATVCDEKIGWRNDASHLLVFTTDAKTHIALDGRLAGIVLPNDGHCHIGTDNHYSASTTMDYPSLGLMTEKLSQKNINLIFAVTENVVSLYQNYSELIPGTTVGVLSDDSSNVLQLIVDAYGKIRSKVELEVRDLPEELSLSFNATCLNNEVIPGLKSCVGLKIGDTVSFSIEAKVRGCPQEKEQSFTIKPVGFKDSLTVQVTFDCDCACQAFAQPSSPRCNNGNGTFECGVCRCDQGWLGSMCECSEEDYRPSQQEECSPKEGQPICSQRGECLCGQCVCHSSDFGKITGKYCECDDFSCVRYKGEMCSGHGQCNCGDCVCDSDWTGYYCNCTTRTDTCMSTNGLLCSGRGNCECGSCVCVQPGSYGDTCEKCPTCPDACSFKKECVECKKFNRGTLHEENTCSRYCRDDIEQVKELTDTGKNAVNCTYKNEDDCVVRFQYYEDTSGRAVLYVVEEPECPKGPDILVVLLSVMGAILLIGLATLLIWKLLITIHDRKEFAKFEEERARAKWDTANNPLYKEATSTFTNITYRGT
T1 sequence (P43406 31-885 limits assumed): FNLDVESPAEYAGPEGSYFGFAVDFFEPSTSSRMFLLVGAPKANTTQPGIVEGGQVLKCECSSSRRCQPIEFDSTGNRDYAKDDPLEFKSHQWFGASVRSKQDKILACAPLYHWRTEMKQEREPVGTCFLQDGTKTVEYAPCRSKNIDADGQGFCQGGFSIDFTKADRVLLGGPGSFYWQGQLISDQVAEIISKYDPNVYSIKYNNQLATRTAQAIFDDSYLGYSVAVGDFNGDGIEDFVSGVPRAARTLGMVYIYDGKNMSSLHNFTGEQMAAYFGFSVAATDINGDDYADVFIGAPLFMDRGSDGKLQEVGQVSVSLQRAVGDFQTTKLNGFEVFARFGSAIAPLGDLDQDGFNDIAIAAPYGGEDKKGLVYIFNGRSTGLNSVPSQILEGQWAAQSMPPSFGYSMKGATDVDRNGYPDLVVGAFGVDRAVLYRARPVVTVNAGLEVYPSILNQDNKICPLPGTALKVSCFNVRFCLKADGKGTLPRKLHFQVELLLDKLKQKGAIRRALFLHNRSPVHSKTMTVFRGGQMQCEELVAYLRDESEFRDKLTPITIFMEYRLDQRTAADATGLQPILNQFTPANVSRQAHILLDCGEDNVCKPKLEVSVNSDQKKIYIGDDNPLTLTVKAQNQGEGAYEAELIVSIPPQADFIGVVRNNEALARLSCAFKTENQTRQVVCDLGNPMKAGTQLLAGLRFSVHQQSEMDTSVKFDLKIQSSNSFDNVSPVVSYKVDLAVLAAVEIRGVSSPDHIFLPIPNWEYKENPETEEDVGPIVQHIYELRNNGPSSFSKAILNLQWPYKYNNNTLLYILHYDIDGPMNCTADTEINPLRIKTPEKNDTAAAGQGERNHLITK
T1 sequence (P43406 887-1044 partner limits assumed): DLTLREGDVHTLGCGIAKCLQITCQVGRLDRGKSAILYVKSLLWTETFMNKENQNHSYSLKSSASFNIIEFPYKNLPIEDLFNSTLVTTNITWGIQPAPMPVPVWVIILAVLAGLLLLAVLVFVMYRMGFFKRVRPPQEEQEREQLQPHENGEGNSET
Test: Western blot of β3 integrin phosphorylation in primary CD8+ T-cells after peptide stimulation
Format: cell-based, murine
Conditions: primary CD8+ T-cells from melanoma bearing mice, compared to control peptide CP
Method: FIGS. 2A-2F. Detection of RGDKGE (SEQ ID NO: 1)-containing collagen peptide in malignant tumor cells and expression of key signaling molecules in T-cells. Briefly, whole cell lysates and serum free concentrated conditioned medium was prepared from tumor cells lines. FIG. 2A. Western blot analysis of whole cell lysates from human C8161 and murine B16F10 melanoma cells for the expression of the low molecular weight 16 kDa RGDKGE (SEQ ID NO: 1)-containing collagen peptide (XL313) or actin as a loading control. FIG. 2B. […]
Whole cell and CAM tissue lysates were collected in RIPA buffer (10 mM Tris-HCl, pH 8.0; 1 mM EDTA; 0.5 mM EGTA; 1% Triton X-100; 0.1% Sodium Deoxycholate; 0.1% SDS; 140 mM NaCl) supplemented with 1× protease inhibitor and 1× phosphatase inhibitor and were run on polyacrylamide gels using denaturing conditions. […] Western blot bands were quantified using Image J software based on pixel intensity.
We previously made the surprising observation that a small bioactive collagen peptide containing the core amino acid sequence RGDKGE (SEQ ID NO: 1) could be generated inside a subset of M2-like activated macrophages as well as a variety of other malignant tumor cells, and then actively secreted outside the cells (11-13). Importantly, minimal levels of this soluble collagen peptide was detected in normal cells (13). […]

Sequence: QGPRGDKGE (CQGPRGDKGEC; Synthetic: Synthetic collagen RGD containing peptide P-2) [Peptide P2, synthetic version of the soluble RGDKGE-containing collagen peptide]
- β3 integrin phosphorylation: enhanced β3 integrin phosphorylation
